One substance from patent US20220356230A1 can be followed below.

Common to all, as to experiment: Luminex bead assay, antibody supernatant on modified RBD.mmH microspheres
The target in experiment [1] is MOD11 - SARS-CoV-2 Spike Protein (RBD)(R319-F541).mmH (SARS-CoV-2).
For experiment [2], the target named is MOD8 - SARS-CoV-2 Spike Protein (RBD)(R319-F541).mmH (SARS-CoV-2).
Experiment [3] has as its target MOD12 - SARS-CoV-2 Spike Protein (RBD)(R319-F541).mmH (SARS-CoV-2).
Experiment [4] deals with MOD10 - SARS-CoV-2 Spike Protein (RBD)(R319-F541).mmH (SARS-CoV-2).
Experiment [5] deals with MOD9 - SARS-CoV-2 Spike Protein (RBD)(R319-F541).mmH (SARS-CoV-2).
The target of experiment [6] is MOD15 - SARS-CoV-2 Spike Protein (RBD)(R319-F541).mmH (SARS-CoV-2).
The target of experiment [7] is MOD14 - SARS-CoV-2 Spike Protein (RBD)(R319-F541).mmH (SARS-CoV-2).
Experiment [8] addresses MOD13 - SARS-CoV-2 Spike Protein (RBD)(R319-F541).mmH (SARS-CoV-2).

As for mAb10936 (antibody), the Binding signal (MFI) in experiment [1] was determined as 30800 MFI; in experiment [2], 2920 MFI; in experiment [3] it was 31700 MFI; in experiment [4], 28800 MFI; in experiment [5], 29100 MFI; in experiment [6], 21700 MFI. For the same substance, the figures for the Binding signal (MFI) in experiment [7] and in experiment [8] were 28500 MFI and 29200 MFI, respectively.
